In US20170037117A1, “COMPOSITIONS AND METHODS FOR TREATING METABOLIC DISORDERS” (Salk Institute for Biological Studies, priority 2014, published 2017):

Target: T1, human α-CGRP (Homo sapiens, UniProt P06881)
T1 construct: 1-37 (WT); purchased GenScript Corporation or Global Peptide Services
T1 sequence (P06881 83-119 limits assumed): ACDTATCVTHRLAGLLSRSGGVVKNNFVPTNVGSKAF
Assay: Biacore affinity of G1 Fab and variants to human α-CGRP
Format: binding
Conditions: 37° C.; Fab fragments; screening mode except underlined values (G1 high-resolution mode)
Description: Biacore assay for affinity determination. […] All Biacore assays were conducted in HBS-EP running buffer (10 mM HEPES pH 7.4, 150 mM NaCl, 3 mM EDTA, 0.005% v/v polysorbate P20). CGRP surfaces were prepared by diluting the N-biotinylated CGRP to a concentration of less than 0.001 mg/mL into HBS-EP buffer and injecting it across the SA sensor chip using variable contact times. Low capacity surfaces, corresponding to capture levels <50 response units (RU) were used for high-resolution kinetic studies, whereas high capacity surfaces (about 800 RU of captured CGRP) were used for concentration studies, screening, and solution affinity determinations. […] Samples were typically injected for 1 minute at 100 μL/min and dissociation times of at least 10 minutes were allowed. After each binding cycle, surfaces were regenerated with 25 mM NaOH in 25% v/v ethanol, which was tolerated over hundreds of cycles. […]
High-resolution analysis of binding interactions with extremely slow offrates. […] The association rate constant (kon) was determined by injecting a 2-fold titration series (in duplicate) spanning 550 nM-1 nM for 30 sec at 100 uL/min and allowing only a 30 sec dissociation phase. The dissociation rate constant (koff) was determined by injecting three concentrations (high, medium, and low) of the same titration series in duplicate for 30 sec and allowing a 2-hour dissociation phase. […]

B1: M25: G1 variant: L1 R28N; HC-FW3 L99T A100V (antibody, V domains shown)
VH: EVQLVESGGGLVQPGGSLRLSCAASGFTFSNYWISWVRQAPGKGLEWVAEIRSESDASATHYAEAVKGRFTISRDNAKNSLYLQMNSLRAEDTAVYYCTVYFDYGLAIQNYWGQGTLVTVSS
VL: EIVLTQSPATLSLSPGERATLSCKASKNVTTYVSWYQQKPGQAPRLLIYGASNRYLGIPARFSGSGSGTDFTLTISSLEPEDFAVYYCSQSYNYPYTFGQGTKLEIK
B1 was tested, and the “α-human koff” value was 0.00014 s⁻¹.
